The source of these data is patent US7572600B2, “Enzymatic activities in chemokine-mediated inflammation” (Chemocentryx, Inc., priority 2004, dated 2009).

Assay [1] deals with human monocytes. The experiment in a line: Calcium mobilization in freshly isolated human monocytes. In kind it is cell-based. The following applies: for calcium mobilization: undigested chemokine or peptide, 100 nM (CCL23β up to 250 nM). The protocol: (§1) Calcium Mobilization Assay. Cells were loaded for 1 hour with 2 μM indo-1/AM dye (Molecular Probes, Eugene, Oreg.) in culture medium, then washed with 10 ml PBS and resuspended at 10^6/ml in HBSS containing 1% FBS. Cytosolic calcium responses were determined using a Photon Technology International (Lawrenceville, N.J.) fluorimeter, with excitation at 350 nm and dual emission at 400 and 490 nm. Alternatively, cells were loaded with 5 μg/ml Fluo-4 AM dye (Molecular Probes, Eugene, Oreg.), then washed and analyzed on a Fluorometric Imaging Plate Reader 384 (FLIPR^384 Molecular Devices, Sunnyvale, Calif.), with 505 nm excitation and 530 nm emission.
(§2) Receptor signaling assay. For individual measurements, cells were loaded for 45 min at room temperature with 2 μM indo-1/AM (Invitrogen, Carlsbad Calif.) in culture medium, then washed with 10 ml PBS and resuspended at 10^6 cells/ml in HBSS containing 0.1% BSA. Cytosolic calcium levels were determined using a Photon Technology International fluorimeter (excitation at 350 nm, ratio of dual emission at 400 and 490 nm). For measuring calcium dose responses, cells were analyzed with a Fluorometric Imaging Plate Reader 384 (FLIPR^384) (Molecular Devices, Sunnyvale, Calif.). Cells were loaded for 1 hr at 37° C. with 5 μM fluo-4 in HBSS with 0.1% BSA, then washed, transferred to black-wall 96-well plates, and subsequently excited at 505 nm with emission recorded at 530 nm with a standard protocol provided by the manufacture. Cells were stimulated with agonists 20 s after the monitoring of fluorescence began. Data were analyzed and plotted in arbitrary units of fluorescence using Prism. To ensure that responses were specific to FPRL1, we utilized a selective small-molecule antagonist of human FPRL1, generated by ChemoCentryx, which was optimized from a high throughput compound library screening approach.

Assay [2] has as its system human monocytes. The experiment in a line: Chemotaxis of human monocytes. The class given is cell-based. As to conditions: undigested. The procedure: (§3) Chemotaxis assay. L1.2-CCR1 transfectants, THP-1 cells, human monocytes and human neutrophils were collected by centrifugation and resuspended in HBSS containing 0.1% BSA. Chemotaxis assays were performed in 96-well ChemoTx® microplates (Neuroprobe, Rockville, Md.) as follows. Chemokines were added to the lower wells (final volume 29 μL), and 20 μL of cell suspension (5×10^6 cells/mL) was added to the polycarbonate filter (3 μm pore size for neutrophils, 5 μm for other 3 cell types). After incubation at 37° C. in the presence of 5% CO2 for 1 hr (neutrophils), 90 min (monocytes) or 2 h (THP-1 and L1.2-CCR1), cells were removed from the upper surface of the filter by scraping. Cells that migrated into the lower chamber were quantified by using the CyQuant cell proliferation assay kit (Molecular Probes, Eugene, Oreg.) and analyzed with a Tecan (Durham, N.C.) fluorimeter (excitation at 480 nm, emission at 530 nm). Data were analyzed and plotted in arbitrary units of fluorescence using Prism (GraphPad Software, San Diego, Calif.).
(§4) Chemotaxis assays. L1.2-CCR1 and L1.2-FPRL1 transfectants, monocytes and neutrophils were collected by centrifugation and resuspended in HBSS with 0.1% BSA. The assays were performed in 96-well ChemoTx® microplates (Neuroprobe, Rockville, Md.). Chemokines were diluted in HBSS with 0.1% BSA and added to the lower wells (final volume 29 μL), then 20 μL of cell suspension (5×10^6 cells/mL for monocytes; 2.5×10^6 cells/mL for neutrophils) were added to the polycarbonate filters (5 μm pore size for monocytes and FPRL1 transfectants; 3 μm pore size for neutrophils). After incubation for 90 min (37° C., 100% humidity, 5% CO2), the filters were removed and the cells that migrated into the lower chamber were quantified by using the CyQuant cell proliferation assay kit (Molecular Probes, Oreg.).

The subject of the next assay is human neutrophils. The experiment in a line: Chemotaxis of human neutrophils. In kind it is cell-based. The protocol: as §3, §4
The test system of assay [3] is monocyte-derived dendritic cells. The experiment in a line: Calcium mobilization in monocyte-derived dendritic cells. In kind it is cell-based, human. The procedure:
Human monocytes were obtained from buffy coats purchased from the Stanford Blood Bank (Palo Alto, Calif.) by sedimentation on Ficoll-Paque (Amersham, Piscataway, N.J.) and selection with anti-CD14 magnetic beads (Miltenyi, Auburn, Calif.) according to the manufacturers' instructions. For generation of dendritic cells, monocytes were cultured for 6 days in RPMI-1640 medium containing 10% FBS (HyClone, Logan, Utah). On days 0, 2 and 4, GM-CSF and IL-4 (both purchased from R&D Systems, Minneapolis, Minn.) were added to the cultures at 1000 WHO unit/ml each. The cells were confirmed to be CD14^−CD1a^+ immature DC by FACS staining on day 6.
as §1
Immature and mature DC preparation. Immature DCs were derived by culturing CD14+ monocytes in T-175 cultured flasks at a density of 10^6 cells/ml in RPMI supplemented with 10% FBS. Recombinant human cytokines GM-CSF and IL-4 (final concentration 1000 and 500 U/ml, respectively) were added on day 0, 2, 4 and 6. Cells were harvested on day 6 as immature DCs and characterized for surface marker expression by flow cytometry. DC maturation was carried out by culturing day-6 immature DCs in RPMI-10% FBS supplemented with GM-CSF, IL-4 and 50 μg/ml polyIC (Sigma, St. Louis Mo.). After two more days of culture, cells were harvested as mature DCs and characterized by surface marker expression by flow cytometry.
as §2

In assay [4] the test system is murine bone marrow neutrophils. The experiment in a line: Calcium responses and chemotaxis in murine bone marrow neutrophils. The following applies: murine bone marrow neutrophils (not shown). In kind it is cell-based, mouse.
For another assay, the target named is T1, CCR1 (Homo sapiens, UniProt P32246).
T1 sequence (P32246 1-355): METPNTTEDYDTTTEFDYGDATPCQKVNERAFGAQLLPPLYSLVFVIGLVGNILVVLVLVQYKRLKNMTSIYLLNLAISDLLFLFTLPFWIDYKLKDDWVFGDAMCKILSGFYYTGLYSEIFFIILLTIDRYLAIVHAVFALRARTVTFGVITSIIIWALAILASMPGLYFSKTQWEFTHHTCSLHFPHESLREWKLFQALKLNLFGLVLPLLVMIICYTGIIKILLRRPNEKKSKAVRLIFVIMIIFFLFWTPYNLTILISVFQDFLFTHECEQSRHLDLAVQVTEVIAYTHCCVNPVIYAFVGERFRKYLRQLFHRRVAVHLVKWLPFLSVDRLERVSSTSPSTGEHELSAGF
In words: Calcium mobilization in murine L1.2 cells expressing human CCR1. In kind it is cell-based. Also on record: expressed in transfected cells; host or cells: murine L1.2 cells (G-418 selected transfectant). As to conditions: L1.2 cells stably expressing human CCR1. The procedure:
as §1, §2
On the technique in general: Calcium assays in cells follow changes in intracellular calcium, usually with a dye or a luminescent sensor.

Where no end group is shown, it is not given here.

In the case of MLWRRKIGPQMTLSHAAG [SHAAGtide], the calcium mobilization result in the assay with human monocytes [1] is on record as “equipotent to CCL23β Δ24”. Also, the chemotaxis entry in the assay on human monocytes [2] and with human neutrophils was “vigorous chemotaxis” throughout. The calcium response entry in assay [3] (immature DC, undigested) is given as “much smaller calcium response”; in assay [3] (mature DC) it was “small amount of signaling activity”. Besides, the “calcium responses and chemotaxis” value in assay [4] is “able to induce calcium responses and chemotaxis”.

B1: CCL23β Δ24: truncated form of CCL23β lacking the 24-residue N-terminal domain, beginning with the SHAAGtide insertion (protein, listed as Homo sapiens)
chain: MLWRRKIGPQMTLSHAAGFHATSADCCISYTPRSIPCSLLESYFETNSECSKPGVIFLTKKGRRFCANPSDKQVQVCMRMLKLDTRIKTRKN
On to B1, for which the “magnitude of calcium signal versus CCL15 Δ24/leukotactin” value in the assay on human monocytes [1] (both at 100 nM) was “at least two fold higher”. In addition, the calcium mobilization entry with human monocytes [1] was “particularly strong and sustained calcium profile”. In addition, the chemotaxis entry in the assay with human monocytes [2] and with human neutrophils was “vigorous chemotaxis” each time. Further, the calcium response result in assay [3] (immature DC, undigested) is given as “strong calcium response”; in assay [3] (mature DC) it was “diminished”. Also, the “calcium responses and chemotaxis” value in assay [4] was “able to induce calcium responses and chemotaxis”. Also, the “calcium mobilization in the CCR1 transfectant” value with CCR1 is given as “effective at inducing calcium mobilization”.
